The values that follow come from PMC9729196, “An in silico method to assess antibody fragment polyreactivity” (Nature Communications, 2022).

To fix the notation:
B1: AT118i4h32 / wild-type human FLAG-AT1R (angiotensin II type 1 receptor) [human] (parent complex)
chain 1: MAEVQLVESGGGLVQPGGSLRLSCAASGYIYRRYRMGWYRQAPGKGREFVAAISGGSSTNYADSVKGRFTISRDNSKNTVYLQMNSLRAEDTAVYYCAAYRIVSDPRVYWGQGTQVTVSSLE
chain 2: MILNSSTEDGIKRIQDDCPKAGRHNYIFVMIPTLYSIIFVVGIFGNSLVVIVIYFYMKLKTVASVFLLNLALADLCFLLTLPLWAVYTAMEYRWPFGNYLCKIASASVSFNLYASVFLLTCLSIDRYLAIVHPMKSRLRRTMLVAKVTCIIIWLLAGLASLPAIIHRNVFFIENTNITVCAFHYESQNSTLPIGLGLTKNILGFLFPFLIILTSYTLIWKALKKAYEIQKNKPRNDDIFKIIMAIVLFFFFSWIPHQIFTFLDVLIQLGIIRDCRIADIVDTAMPITICIAYFNNCLNPLFYGFLGKKFKRYFLQLLKYIPPKAKSHSNLSTKMSTLSYRPSDNVSSSTKKPAPCFEVE

The experiment covers variants of B1. Put plainly: flow cytometry on cells; parent: 100; read off a plot. Background: A flow cytometer gives signals particle by particle.
Take chain 1 R101D: the percent of parent was ~17 % of WT.
As to chain 1 S54V, the percent of parent was ~41 % of WT.
On to chain 1 A99H, for which the percent of parent was ~3 % of WT.
For chain 1 A98W, the percent of parent was ~22 % of WT.
In the case of chain 1 Y34G it was ~3 % of WT; in that of chain 1 Y100D, ~12 % of WT.
To chain 1 Y31R belongs ~48 % of WT; to chain 1 G28D, chain 1 T59I, ~99 % of WT.
In the case of chain 1 G56F it was ~54 % of WT.
For chain 1 R33D, the percent of parent was ~8 % of WT.
